From the supplement of paper PMC10126150
± gives the standard deviation of the averaged measurements.

Test system: ATP
Assay: switch fluorescence ratio, 500 uM ATP over buffer (Cy3 cluster intensity, sum of 5 cycles each) (fold (ratio)); higher = stronger signal-on switching upon ATP binding; sequences stand for … in TCGTCGGCAGCGTCAGATGTGTATAAGAGACAGTTTTTTTTTTTTTTTTTTTTTTTTT…TC
Details: aptamer strand: ATP DNA aptamer (quencher-CACCTGGGGGAGTATTGCGGAGGAAGG + anchor), 100 nM annealed; ATP concentration: 500 uM
Procedure, shortened: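 Clusters with intensities outside 100-1000 RFU were excluded. The remaining Cy3-labelled switching-strand clusters on a modified Illumina MiSeq flow-cell had been annealed to 100 nM quencher-labelled ATP aptamer and imaged in selection buffer, then after 15 min with 500 uM ATP at 22 °C, for five cycles separated by NaOH stripping and re-annealing. The fluorescence ratio, averaged per switch-domain sequence, is each cluster's summed target-cycle Cy3 intensity over its summed buffer-cycle Cy3 intensity.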
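Note: ATP exposure 15 min at 22 °C before imaging.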

Sequence | switch fluorescence ratio
TCGGCCCAGG | 3.6 ± 1.4
TCGGCCGGGG | 1.02 ± 0.015
TCGGCGAAAG | 1.02 ± 0.023
TCGGCGACAT | 1.005 ± 0.0072
TCGGCGAGGG | 0.977 ± 0.021
TCGGCGTCTT | 0.977 ± 0.04
TCGGCTATG | 1.12 ± 0.15
TCGGCTATTT | 1.03 ± 0.019
TCGGCTTAGG | 0.987 ± 0.048
TCGGGAAATT | 1.012 ± 0.0019
TCGGGACGGG | 1.01 ± 0.013
TCGGGAGAGC | 1.04 ± 0.038
TCGGGAGATT | 1.02 ± 0.029
TCGGGATCGG | 1 ± 0.015
TCGGGCAGCG | 0.989 ± 0.058
TCGGGCAGGG | 1.003 ± 0.0044
TCGGGGATCT | 1.033 ± 0.0073
TCGGGGCCGT | 0.971 ± 0.059
TCGGGGCCTC | 1.04 ± 0.024
TCGGGGCTCT | 1.07 ± 0.12
TCGGGGCTTT | 0.982 ± 0.022
TCGGGGGAAG | 1.01 ± 0.038
TCGGGGGAGC | 0.984 ± 0.025

Sequence | switch fluorescence ratio
TCGGGGGGAA | 1.06 ± 0.057
TCGGGGGGTT | 0.998 ± 0.034
TCGGGGGTAA | 1.01 ± 0.033
TCGGGGGTCG | 0.954 ± 0.097
TCGGGGTCTG | 0.9872 ± 0.0066
TCGGGGTGCA | 0.9732 ± 0.0086
TCGGGGTGTG | 0.988 ± 0.031
TCGGGGTTCG | 0.992 ± 0.03
TCGGGGTTGG | 0.978 ± 0.029
TCGGGTAAAA | 1.01 ± 0.028
TCGGGTAGTG | 1.01 ± 0.026
TCGGGTATAT | 1 ± 0.044
TCGGGTCGTA | 1.02 ± 0.019
TCGGGTGTGA | 1.029 ± 0.0015
TCGGGTGTTG | 1.03 ± 0.048
TCGGGTTGTG | 0.959 ± 0.031
TCGGTAGCAG | 1.092 ± 0.01
TCGGTCCGAT | 0.9997 ± 0.005
TCGGTGAATT | 1.01 ± 0.011
TCGGTGAGGG | 1.02 ± 0.07
TCGGTGCCTG | 1.01 ± 0.36
TCGGTGGTAA | 0.9823 ± 0.0065
TCGGTTTTGT | 0.983 ± 0.026

Sequence | switch fluorescence ratio
TCGTAAAGGA | 1.03 ± 0.043
TCGTACTGAC | 1.03 ± 0.044
TCGTACTGGT | 0.99 ± 0.068
TCGTAGACGT | 1.01 ± 0.011
TCGTAGGAGG | 1.07 ± 0.024
TCGTAGGATG | 0.975 ± 0.037
TCGTAGGTAA | 1.1 ± 0.12
TCGTAGTATT | 0.993 ± 0.021
TCGTATCATT | 0.976 ± 0.02
TCGTCAGCTG | 1.02 ± 0.061
TCGTCTCTTT | 0.986 ± 0.018
TCGTGAACCC | 1.01 ± 0.023
TCGTGAAGAG | 0.987 ± 0.012
TCGTGAAGCG | 1.04 ± 0.025
TCGTGATGTA | 0.974 ± 0.014
TCGTGCATGG | 1.046 ± 0.008
TCGTGCGCTG | 0.997 ± 0.079
TCGTGCGGGG | 0.969 ± 0.016
TCGTGCTGGG | 1 ± 0.067
TCGTGGACGC | 0.995 ± 0.031
TCGTGGATGT | 1 ± 0.028
TCGTGGGGTG | 0.999 ± 0.042
TCGTGGGTGC | 1.01 ± 0.023

Sequence | switch fluorescence ratio
TCGTGGTTTA | 0.994 ± 0.021
TCGTGGTTTC | 0.9823 ± 0.0069
TCGTGTGACC | 1.009 ± 0.0093
TCGTGTTCTT | 0.95 ± 0.028
TCGTGTTGTT | 0.969 ± 0.021
TCGTGTTTTT | 1.01 ± 0.013
TCGTTAAACT | 1.02 ± 0.011
TCGTTAATGG | 1.004 ± 0.0049
TCGTTCGAGG | 0.958 ± 0.013
TCGTTGAACG | 0.973 ± 0.03
TCGTTGAGTG | 1.02 ± 0.056
TCGTTGCGT | 1.01 ± 0.0017
TCGTTGGCGG | 0.951 ± 0.019
TCGTTGGGGA | 1 ± 0.018
TCGTTGGGTG | 0.994 ± 0.015
TCGTTGGTTT | 0.994 ± 0.021
TCGTTGTGTG | 0.981 ± 0.019
TCGTTTCATA | 0.9784 ± 0.0036
TCGTTTGTGG | 1.04 ± 0.013
TCGTTTTAGT | 0.985 ± 0.014
TCGTTTTGTT | 0.975 ± 0.051
TCGTTTTTAT | 0.983 ± 0.023
TCTAAAAAGG | 0.998 ± 0.025

Sequence | switch fluorescence ratio
TCTAAAATTT | 1.15 ± 0.18
TCTAAAGTGT | 0.983 ± 0.0088
TCTAAGGGGA | 1.06 ± 0.11
TCTAAGTGAG | 1.02 ± 0.016
TCTAAGTTA | 0.998 ± 0.012
TCTAATGAGG | 1.006 ± 0.0063
TCTAATGTGG | 0.983 ± 0.043
TCTAATTCAA | 0.996 ± 0.018
TCTACTGGGG | 0.994 ± 0.029
TCTAGGACGG | 1 ± 0.017
TCTAGGCGTC | 1.07 ± 0.031
TCTAGGGCAA | 1.66 ± 0.086
TCTAGTCCGA | 1.003 ± 0.009
TCTAGTGGGG | 1.01 ± 0.028
TCTAGTGGTA | 0.9893 ± 0.0096
TCTATAAATA | 0.985 ± 0.022
TCTATATGGG | 0.99 ± 0.011
TCTATGATAG | 0.971 ± 0.013
TCTCAAAAAT | 1.1 ± 0.025
TCTCACATCG | 1.01 ± 0.024
TCTCAGTAGG | 1.02 ± 0.013
TCTCAGTCCA | 1.02 ± 0.039
TCTCCGAGTG | 1.45 ± 0.17

Sequence | switch fluorescence ratio
TCTCCGGGGA | 1.2077 ± 0.0006
TCTCGAGGGG | 1 ± 0.019
TCTCGCCAAG | 1.06 ± 0.019
TCTCGCCTTT | 0.975 ± 0.066
TCTCGGCTGG | 0.9962 ± 0.001
TCTCTGGATG | 1.02 ± 0.013
TCTCTGTAGG | 1.03 ± 0.037
TCTCTGTCGG | 1.05 ± 0.011
TCTCTGTCTC | 1.12 ± 0.097
TCTCTTATGA | 0.997 ± 0.011
TCTCTTGGGA | 1.03 ± 0.024
TCTGAAAATG | 0.998 ± 0.012
TCTGAAATTC | 1.15 ± 0.055
TCTGAAATTT | 0.9727 ± 0.0067
TCTGACAATC | 1.91 ± 0.24
TCTGACGTA | 1.04 ± 0.0091
TCTGAGGGGA | 1.02 ± 0.055
TCTGATAGTT | 0.998 ± 0.021
TCTGATGGTG | 1.06 ± 0.039
TCTGATGTGA | 1.08 ± 0.044
TCTGATGTTT | 1.01 ± 0.021
TCTGCTAAAA | 0.973 ± 0.041
TCTGGAATAA | 1.66 ± 0.057

Sequence | switch fluorescence ratio
TCTGGCCGCG | 1.015 ± 0.0075
TCTGGGAATA | 1.04 ± 0.023
TCTGGGCCTT | 0.999 ± 0.023
TCTGGGGAGG | 1 ± 0.02
TCTGGGGGT | 0.949 ± 0.02
TCTGGGGTGG | 1.16 ± 0.21
TCTGGGGTTT | 1.03 ± 0.051
TCTGGGTGAA | 1.03 ± 0.081
TCTGGTTAGT | 1.01 ± 0.066
TCTGGTTTTG | 0.984 ± 0.043
TCTGTAGGTG | 1.07 ± 0.046
TCTGTAGTGG | 1.03 ± 0.014
TCTGTATCCG | 0.984 ± 0.015
TCTGTATGTA | 1.01 ± 0.026
TCTGTCCAGC | 0.9775 ± 0.0046
TCTGTCCTTT | 0.9708 ± 0.0028
TCTGTGACTA | 1.06 ± 0.044
TCTGTGATCT | 1.01 ± 0.021
TCTGTTAAT | 1.11 ± 0.18
